# Assay results: patent US11787839B2, “Targeting α2δ-1-bound glutamate receptors for treating diseases and disorders” (Board of Regents, The University of Texas System, priority 2017, dated 2023)
# Entries after “also recorded” stand apart in the source; their conditions may differ.
# Tests used:
# [1] = biological target: T1, α2δ-1-Cav2.2 interaction (Rattus norvegicus, UniProt P54290+Q02294); test: Co-IP of α2δ-1 and Cav2.2 in spinal cord after intrathecal injection; assay type: in vivo; settings: SNL and sham rats, intrathecal 1 μg, 60 min
# T1 construct: from tissue; host or cells: rat dorsal spinal cord (L5-L6) membrane extracts after intrathecal injection
# T1 sequence (P54290 25-944 limits assumed): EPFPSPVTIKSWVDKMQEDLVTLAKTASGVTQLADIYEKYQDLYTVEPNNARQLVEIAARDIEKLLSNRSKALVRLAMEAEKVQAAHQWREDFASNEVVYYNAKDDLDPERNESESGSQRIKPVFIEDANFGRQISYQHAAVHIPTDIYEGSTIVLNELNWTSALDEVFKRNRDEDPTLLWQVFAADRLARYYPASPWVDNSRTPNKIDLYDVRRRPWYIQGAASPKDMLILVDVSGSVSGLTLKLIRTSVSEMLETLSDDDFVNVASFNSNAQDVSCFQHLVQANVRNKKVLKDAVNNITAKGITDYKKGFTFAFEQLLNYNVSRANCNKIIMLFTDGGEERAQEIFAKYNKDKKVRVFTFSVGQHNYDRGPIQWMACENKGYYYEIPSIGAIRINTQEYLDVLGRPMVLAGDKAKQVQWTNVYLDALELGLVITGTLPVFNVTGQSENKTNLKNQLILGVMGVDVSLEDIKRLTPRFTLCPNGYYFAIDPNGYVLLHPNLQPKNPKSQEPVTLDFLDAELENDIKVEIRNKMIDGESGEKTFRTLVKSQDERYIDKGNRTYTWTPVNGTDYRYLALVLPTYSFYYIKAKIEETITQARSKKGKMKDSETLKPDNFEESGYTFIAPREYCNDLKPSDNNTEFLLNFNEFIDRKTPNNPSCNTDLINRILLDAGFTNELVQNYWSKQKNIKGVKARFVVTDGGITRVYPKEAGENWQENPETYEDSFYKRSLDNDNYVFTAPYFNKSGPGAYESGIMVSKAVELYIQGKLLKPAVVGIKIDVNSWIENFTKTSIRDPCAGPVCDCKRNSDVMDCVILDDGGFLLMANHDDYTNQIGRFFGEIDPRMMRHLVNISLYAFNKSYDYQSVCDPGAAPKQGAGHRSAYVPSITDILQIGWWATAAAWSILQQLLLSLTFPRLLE
# T1 sequence (Q02294 whole entry): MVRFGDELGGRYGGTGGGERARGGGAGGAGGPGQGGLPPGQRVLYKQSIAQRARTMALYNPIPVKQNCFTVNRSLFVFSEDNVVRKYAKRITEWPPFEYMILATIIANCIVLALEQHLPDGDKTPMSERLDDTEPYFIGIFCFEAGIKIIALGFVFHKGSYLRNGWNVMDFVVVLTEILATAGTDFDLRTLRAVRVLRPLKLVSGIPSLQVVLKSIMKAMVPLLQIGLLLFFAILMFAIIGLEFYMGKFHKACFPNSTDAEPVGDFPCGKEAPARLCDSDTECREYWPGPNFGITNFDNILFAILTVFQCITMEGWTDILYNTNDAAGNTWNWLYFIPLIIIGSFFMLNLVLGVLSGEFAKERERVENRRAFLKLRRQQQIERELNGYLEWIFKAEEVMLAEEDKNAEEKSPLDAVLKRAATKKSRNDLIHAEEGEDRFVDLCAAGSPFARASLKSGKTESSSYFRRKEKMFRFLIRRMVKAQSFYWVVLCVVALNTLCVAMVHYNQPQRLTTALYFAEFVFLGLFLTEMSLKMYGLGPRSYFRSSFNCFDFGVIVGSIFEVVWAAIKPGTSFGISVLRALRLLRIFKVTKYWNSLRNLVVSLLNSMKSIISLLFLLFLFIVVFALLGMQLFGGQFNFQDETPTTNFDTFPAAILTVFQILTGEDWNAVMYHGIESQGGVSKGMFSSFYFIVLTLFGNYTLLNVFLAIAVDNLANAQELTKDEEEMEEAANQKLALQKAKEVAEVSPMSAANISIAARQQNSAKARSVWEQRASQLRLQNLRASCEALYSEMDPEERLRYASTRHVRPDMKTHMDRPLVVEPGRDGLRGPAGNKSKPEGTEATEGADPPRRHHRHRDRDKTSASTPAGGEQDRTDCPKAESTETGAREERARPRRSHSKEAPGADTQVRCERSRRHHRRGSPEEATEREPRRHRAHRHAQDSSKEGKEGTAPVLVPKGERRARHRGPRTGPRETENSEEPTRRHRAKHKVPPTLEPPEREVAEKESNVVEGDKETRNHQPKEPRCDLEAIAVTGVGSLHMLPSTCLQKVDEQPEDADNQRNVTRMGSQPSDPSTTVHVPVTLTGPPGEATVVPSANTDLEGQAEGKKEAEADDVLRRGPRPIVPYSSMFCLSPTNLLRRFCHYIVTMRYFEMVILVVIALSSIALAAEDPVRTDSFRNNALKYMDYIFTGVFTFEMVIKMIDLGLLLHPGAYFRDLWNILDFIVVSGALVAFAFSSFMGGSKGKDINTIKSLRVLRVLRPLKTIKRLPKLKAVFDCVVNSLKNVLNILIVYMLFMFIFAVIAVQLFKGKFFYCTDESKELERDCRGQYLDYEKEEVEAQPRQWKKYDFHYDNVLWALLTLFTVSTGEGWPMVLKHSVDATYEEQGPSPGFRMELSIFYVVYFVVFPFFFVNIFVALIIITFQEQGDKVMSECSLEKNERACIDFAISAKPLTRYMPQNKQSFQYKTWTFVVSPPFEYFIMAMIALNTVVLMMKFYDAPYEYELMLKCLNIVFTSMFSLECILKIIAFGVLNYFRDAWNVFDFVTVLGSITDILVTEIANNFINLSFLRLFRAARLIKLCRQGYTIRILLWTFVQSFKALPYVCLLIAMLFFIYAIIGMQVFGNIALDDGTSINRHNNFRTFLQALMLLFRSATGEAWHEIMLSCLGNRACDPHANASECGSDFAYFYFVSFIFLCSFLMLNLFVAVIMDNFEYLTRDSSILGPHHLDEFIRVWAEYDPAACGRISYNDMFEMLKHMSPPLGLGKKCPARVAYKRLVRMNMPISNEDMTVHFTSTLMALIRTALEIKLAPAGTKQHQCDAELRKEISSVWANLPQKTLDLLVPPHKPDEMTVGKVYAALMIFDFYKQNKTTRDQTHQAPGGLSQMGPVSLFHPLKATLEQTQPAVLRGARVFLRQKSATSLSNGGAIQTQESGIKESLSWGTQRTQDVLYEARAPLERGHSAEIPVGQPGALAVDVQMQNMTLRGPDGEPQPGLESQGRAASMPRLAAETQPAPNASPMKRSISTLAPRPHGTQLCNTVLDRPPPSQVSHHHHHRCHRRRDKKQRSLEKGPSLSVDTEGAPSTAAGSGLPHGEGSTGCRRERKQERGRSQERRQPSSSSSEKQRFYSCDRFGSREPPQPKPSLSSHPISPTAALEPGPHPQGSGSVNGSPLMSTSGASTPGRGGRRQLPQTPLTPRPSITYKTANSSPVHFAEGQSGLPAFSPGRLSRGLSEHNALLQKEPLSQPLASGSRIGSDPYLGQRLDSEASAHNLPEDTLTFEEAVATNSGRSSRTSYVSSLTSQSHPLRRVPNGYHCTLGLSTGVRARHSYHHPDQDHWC
# Method: Whole-cell IBa was elicited by a depolarizing pulse to 0 mV for 200 ms from a holding potential of −90 mV. […] Data are means±s.e.m. The numbers of cells recorded in each group are indicated in parentheses (cells from 4 separate experiments). […] The dorsal spinal cord at the L5 and L6 level was removed 60 min after intrathecal injection of α2δ-1Tat peptide (1 μg) or control peptide (1 μg). Membrane proteins were immunoprecipitated first with a rabbit anti-α2δ-1 or anti-IgG antibody. Western immunoblotting was performed by using an anti-Cav2.2 antibody. S, sham; L, SNL; C, control peptide; P, α2δ-1Tat peptide. Data are means±s.e.m.
# Coimmunoprecipitation using spinal cord tissue membrane extracts: The dorsal quadrants of rat spinal cords at the L5 and L6 levels or the frozen lumbar spinal cord tissues from four human donors (2 males and 2 females, age ranged 18-42 years, post-mortem interval of 17-29 h; supplied by University of Maryland Brain and Tissue Bank) were dissected and homogenized in ice-cold hypotonic buffer (20 mM Tris [pH 7.4], 1 mM CaCl2, 1 mM MgCl2, and protease inhibitors) for membrane preparation. The nuclei and unbroken cells were removed by centrifugation at 300×g for 5 min. The supernatant was centrifuged for 20 min at 21,000×g. […]
# [2] = system: α2δ-1-NMDAR interaction; test: Luminescence resonance energy transfer (LRET) in HEK293 cells; assay type: binding, rat
# Description: Luminescence resonance energy transfer (LRET) measurements: For constructs used for LRET measurements, the extracellular non-disulfide-bonded cysteines were mutated to serines so that they were not labeled with the maleimide reactive fluorophore. For the GluN1 subunit, Cys22 and Cys459 were mutated; for the GluN2A subunit, Cys231, Cys399 and Cys461 were mutated. For measurement of LRET between GluN1 and α2δ-1, Cys22 was not mutated and was used as the site for attachment of the thiol-reactive fluorophore. Additionally, for quantitative analysis of the background, a thrombin recognition sequence (amino acids LVPRGS) was inserted immediately at the C-terminal to the cysteine (Kim and Chung, 1992). […]
# Cysteines at the GluN1 and GluN2A sites labeled with thiol-reactive terbium chelate served as donor fluorophore sites, and YFP fused to α2δ-1 served as the acceptor fluorophore. […] The sample was excited at 337 nm, and emission was detected at 527 nm in a QuantaMaster QM3-SS system with Fluorescan software (Photon Technology International, Edison, N.J.). […] Data were analyzed with Origin 8.6 software (OriginLab Corp., Northampton, Mass.). Each sample was scanned 3 times for each ligated condition, and each scan was recorded as an average of 99 sweeps. […] The distance between the donor and acceptor was calculated using the Förster equation (Kim and Chung, 1992).
Compound,interaction between α2δ-1 and Cav2.2 proteins in the spinal cord tissue [1],interaction between α2δ-1 and Cav2.2 proteins in the spinal cord tissue ([1]; listed as α2δ-1 Tat peptide),LRET signal with the R217A mutant of α2δ-1 ([2]; YFP-α2δ-1 R217A mutant),"LRET signal between terbium-labeled NMDAR subunit and YFP-α2δ-1 ([2]; wild-type α2δ-1, terbium-labeled GluN2A or GluN1)"
"YGRKKRRQRRRVSGLNPSLWSIFGLQFILLWLVSGSRHYLW (a2d1 peptide) [α2δ-1Tat peptide, 30-amino-acid peptide mimicking the C-terminal domain of α2δ-1 fused to the cell-penetrating peptide Tat]",lack of an effect,had no effect,,
NCC1(CC(=O)O)CCCCC1 [gabapentin],,,failed to alter; also recorded: had no effect,completely abrogated; also recorded: loss of the LRET signal; also recorded: diminished the interaction
